# Biological target: Recombinant active caspase-9 (catalytic domain) (mammalian) (UniProt P55211)
# Experiment: cell-based or functional assay
# UniProt P55211, sequence (P55211 139-416 limits assumed): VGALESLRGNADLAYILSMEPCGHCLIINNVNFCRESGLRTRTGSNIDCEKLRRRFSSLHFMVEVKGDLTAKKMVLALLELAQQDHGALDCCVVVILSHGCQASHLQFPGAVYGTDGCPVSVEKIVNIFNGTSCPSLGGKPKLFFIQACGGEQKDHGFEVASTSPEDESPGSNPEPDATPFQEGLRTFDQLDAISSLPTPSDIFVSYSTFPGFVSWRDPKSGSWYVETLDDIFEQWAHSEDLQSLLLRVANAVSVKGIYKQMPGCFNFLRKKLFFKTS
substance,measurement,value
"GST-BmIAP (recombinant purified Bombyx mori inhibitor of apoptosis protein, glutathione S-transferase fusion)","caspase-9 activity: AFC release from Ac-LEHD-AFC (100 uM); 0.2 uM caspase-9, 0.2-1.6 uM BmIAP, 37 C (fold molar excess)",8

# Source: patent publication US20030049796A1
